Assay results reported in patent US20240052052A1 (published 2024).

Assays:
[1] = target: T1, Human CD24-mFc (human, UniProt P25063 27-59); test: BLI (Gatorprime)
T1 chain: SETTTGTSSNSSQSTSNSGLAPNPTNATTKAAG

[2] = target: T2, human CD24 (human, UniProt P25063 27-59, heavily glycosylated, GPI-anchored (as described in the background)); test: FACS binding; MCF7 cells
T2 chain: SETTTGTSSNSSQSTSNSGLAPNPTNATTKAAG

[3] = target: T1, Human CD24-mFc; test: SPR (BIAcore); hIgG4
[4] = target: T1, Human CD24-mFc; test: SPR (BIAcore); hIgG1
[5] = target: T2, human CD24; test: FACS binding; Huh7 cells
[6] = target: T2, human CD24; test: FACS binding; DoHH2 cells

B1: ch81A1F8-hIgG4 (antibody, V domains shown)
VH: EVQLQQSGPELVKPGASVKISCKATGYLFTGYYMNWVKQSPEKSLEWIGEINPNTGDTNNNQKFKAKATMTVDRSSSTAYMQLKRLTSEDSAVYYCVRRDYGTSLDYWGQGTTLTVSS
VL: DVQITQSPSYLAASPGETITINCRASKSINKYLAWYQEKPGKTNKLLIHSGSTLQSGIPSRFSGSRSGTDFTLTISNLEPEDFAMYYCQQHNEYPITFGAGTKLELK
- Kd [1]: 0.241 nM
- EC50 [2]: 4.09 nM
- Kd [3]: 2.23 nM

B2: 81A1F8-hIgG1 (antibody, V domains shown)
VH: EVQLQQSGPELVKPGASVKISCKATGYLFTGYYMNWVKQSPEKSLEWIGEINPNTGDTNNNQKFKAKATMTVDRSSSTAYMQLKRLTSEDSAVYYCVRRDYGTSLDYWGQGTTLTVSS
VL: DVQITQSPSYLAASPGETITINCRASKSINKYLAWYQEKPGKTNKLLIHSGSTLQSGIPSRFSGSRSGTDFTLTISNLEPEDFAMYYCQQHNEYPITFGAGTKLELK
- Kd [4]: 2.29 nM

B3: ch110D4G4-hIgG4 (antibody, V domains shown)
VH: EVQLQQSGPGLVKPGASVKISCRASGYLFTGYYMNWVKQSPEKSLEWIGEINPNTGDPRYDQKFKAKATLTVDRSSSTAYMHLKSLTSEDSAVYFCARRDYGTSLDYWGQGTTLTVTS
VL: DVQITQSPSYLAASPGETITINCRASKSISKYLAWYQEKPGKTNKLLIYSGSTLQSGIPSRFSGSGSGSDFTLTISSLEPEDFAMYYCQQHNEYPLTFGAGTKLELK
- EC50 [5]: 1.72 nM

B4: 107D10D11-hIgG (antibody, V domains shown)
VH: QIQLKQSGPGLVQPSQSLSITCTVSGFSLSSYGVNWVRQSPGKGLEWLGMIWSGGNTDYNAAFISRVSFTKDNSKSQVFFTMNSLQADDTAIYYCARIWYYGMDYWGQGTSVTVSS
VL: DIVMTQSQKFMSTTVGDRVSITCKASQNVGTAVAWFQQKPGQSPKILIYSASIRYPGVPDRFTGSGSGTDFTLTTSNVQSEDLADYFCLQYITFPRTFGGGTKLYIK
- EC50 [5]: 1.39 nM
- EC50 [2]: 2.19 nM

B5: 101H9G9A2-hIgG (antibody, V domains shown)
VH: QVQLLQPGAELVRPGSSVKLSCKASDYTFTSYWMDWVKQRPGQGLEWIGNIYPSDSKTHYNQKFKDKATLTVDKSSSTAYMQLNSLTSEDSAVYYCARRGGYYAYAMDYWGQGTSVTVSS
VL: DIVMTQSPSSLSVSAGEKVTMRCKSSQSLLNSGNQDNYLAWYQQKPGQPPKLLLYGARIRESGVPDRFIGSGSGTDFTLTISSVQAEDLAVYYCQNDHSYPYTFGGGTKVEIK
- EC50 [5]: 0.815 nM
- EC50 [2]: 2.2 nM

B6: SN3 (antibody, V domains shown)
VH: QVQLKESGPGLVAPSQSLSITCTVSGFSLTSYGVHWVRQPPGKGLEWLGVIWAGGSTNYNSALMSRLSISKDNSKSQVFLKMNSLQTDDTAMYYCAVYYGYLFFAYWGQGTLVTVSA
VL: ENVLTQSPAIMSASPGEKVTMTCSASSSVSYMHWYQQKSTTSPKLWIYDTSKLASGVPGRFSGSGSGNSYSLTISSMEAEDVATYYCFQGSGYPLTFGGGTKLEIK
- EC50 [6]: 1.87 nM
